Laboratory results reported in patent US11827699 (dated 2023).
Substitutions are numbered along the chain they refer to. Where two headings read alike, the source gives them in different places. One block for each binder: values may come before it.

Columns and labels:
Test in all cases: SPR
human FcγRIIa R131 [1] = target: T1, human FcγRIIa R131 (human, UniProt P12318)
T1 chain: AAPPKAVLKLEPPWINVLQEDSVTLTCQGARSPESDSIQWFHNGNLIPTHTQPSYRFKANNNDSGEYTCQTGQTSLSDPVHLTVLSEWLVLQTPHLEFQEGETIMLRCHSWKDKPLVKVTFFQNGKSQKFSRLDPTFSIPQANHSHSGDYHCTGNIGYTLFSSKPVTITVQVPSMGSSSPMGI

human FcγRIIb [2] = target: T2, human FcγRIIb (human, UniProt P31994)
T2 chain: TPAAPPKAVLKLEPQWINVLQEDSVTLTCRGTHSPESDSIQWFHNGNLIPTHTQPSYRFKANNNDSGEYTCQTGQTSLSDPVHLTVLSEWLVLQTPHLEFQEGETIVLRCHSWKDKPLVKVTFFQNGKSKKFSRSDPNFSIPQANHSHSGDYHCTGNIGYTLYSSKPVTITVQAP

human FcγRIIa R131 [3] = target: T1, human FcγRIIa R131
human FcγRIIb [4] = target: T2, human FcγRIIb
human FcγRIa [5] = target: T3, human FcγRIa (human, UniProt P12314)
T3 chain: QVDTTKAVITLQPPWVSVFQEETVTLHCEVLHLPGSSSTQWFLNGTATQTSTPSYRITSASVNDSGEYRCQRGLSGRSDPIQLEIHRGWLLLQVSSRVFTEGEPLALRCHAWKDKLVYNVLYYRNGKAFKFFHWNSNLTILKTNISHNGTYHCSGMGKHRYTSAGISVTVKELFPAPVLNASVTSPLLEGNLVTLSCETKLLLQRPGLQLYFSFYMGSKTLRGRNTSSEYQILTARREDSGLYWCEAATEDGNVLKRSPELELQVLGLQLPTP

human FcγRIa [6] = target: T3, human FcγRIa
human FcγRIa [7] = target: T3, human FcγRIa
human FcγRIIb [8] = target: T2, human FcγRIIb
human FcγRIIb [9] = target: T2, human FcγRIIb
human FcγRIa [10] = target: T3, human FcγRIa
human FcγRIIa R131 [11] = target: T1, human FcγRIIa R131
human FcγRIIb [12] = target: T2, human FcγRIIb
human FcγRIa [13] = target: T3, human FcγRIa
human FcγRIIa R131 [14] = target: T1, human FcγRIIa R131
mouse FcγRI = target: T4, mouse FcγRI (mouse, UniProt P26151)
T4 chain: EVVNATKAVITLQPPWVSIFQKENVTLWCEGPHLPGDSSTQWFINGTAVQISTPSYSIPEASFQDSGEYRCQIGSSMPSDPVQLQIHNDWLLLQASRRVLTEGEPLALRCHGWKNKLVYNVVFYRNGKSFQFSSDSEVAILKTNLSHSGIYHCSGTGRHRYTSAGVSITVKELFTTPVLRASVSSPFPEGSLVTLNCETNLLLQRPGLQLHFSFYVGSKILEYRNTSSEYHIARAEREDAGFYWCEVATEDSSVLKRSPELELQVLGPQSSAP

mouse FcγRIV = target: T5, mouse FcγRIV (mouse, UniProt A0A0B4J1G0)
T5 chain: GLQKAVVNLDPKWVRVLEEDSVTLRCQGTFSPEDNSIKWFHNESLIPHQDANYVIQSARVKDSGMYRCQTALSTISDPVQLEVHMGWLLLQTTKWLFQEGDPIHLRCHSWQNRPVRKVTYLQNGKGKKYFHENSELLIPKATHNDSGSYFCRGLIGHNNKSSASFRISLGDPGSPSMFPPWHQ

B3: IL6R-BP150 (antibody)
chain 1: QVQLQESGPGLVKPSETLSLTCAVSGHSISHDHAWSWVRQPPGEGLEWIGFISYSGITNYNPSLQGRVTISRDNSKNTLYLQMNSLRAEDTAVYYCARSLARTTAMDYWGEGTLVTVSSASTKGPSVFPLAPSSKSTSGGTAALGCLVKDYFPEPVTVSWNSGALTSGVHTFPAVLQSSGLYSLSSVVTVPSSSLGTQTYICNVNHKPSNTKVDKKVEPKSCDKTHTCPPCPAPEYLGDDSVFLFPPKPKDTLMISRTPEVTCVVVDVSHEDPEVKFNWYVDGVEVHNAKTKPREEQYNSTYRVVSVLTVLHQDWLNGKEYKCKVSNAALPKPIEKTISKAKGQPREPQVYTLPPSRDELTKNQVSLTCLVKGFYPSDIAVEWESNGQPENNYKTTPPVLDSDGSFFLYSKLTVDKSRWQQGNVFSCSVMHEALHNHYTQESLSLSP
chain 2: not shown
Kd (human FcγRIIa R131 [3]): 550 nM
Kd (human FcγRIIb [4]): 31 nM
Kd (human FcγRIa [5]): 320 nM

B5: IL6R-BP267 (antibody)
chain 1: B3 chain 1 with E235D, Y236L, H270E, P273G, A328K, K332A
chain 2: not shown
Kd (human FcγRIa [7]): 4 nM

B7: IL6R-BP239 (antibody)
chain 1: B3 chain 1 with E235D, S269Q, H270D, P273G, Y298D, K332R
chain 2: not shown
Kd (human FcγRIIb [8]): 60 nM

B8: IL6R-BP152 (antibody)
chain 1: B3 chain 1 with E235D, Y298D
chain 2: not shown
Kd (human FcγRIIa R131 [3]): 810 nM
Kd (human FcγRIIb [4]): 41 nM
Kd (human FcγRIa [5]): 73 nM

B10: IL6R-BP237 (antibody)
chain 1: B3 chain 1 with E235D, S269Q, H270D, P273G, Y298D
chain 2: not shown
Kd (human FcγRIIb [8]): 100 nM

B11: IL6R-BP233 (antibody)
chain 1: B3 chain 1 with P273G, A328K
chain 2: not shown
Kd (human FcγRIa [10]): 70 nM

B14: IL6R-BP246 (antibody)
chain 1: B3 chain 1 with E235D, Y236L, S269Q, H270D, P273G, Y298D, K332R
chain 2: not shown
Kd (human FcγRIa [10]): 8 nM

B15: IL6R-BP348 (antibody)
chain 1: B3 chain 1 with E235D, Y236L, S269A, H270E, P273G, A328K, K332A
chain 2: not shown
Kd (human FcγRIIa R131 [11]): 700 nM

B16: IL6R-BP151 (antibody)
chain 1: B3 chain 1 with E235D
chain 2: not shown
Kd (human FcγRIIa R131 [3]): 670 nM
Kd (human FcγRIIb [4]): 40 nM
Kd (human FcγRIa [5]): 84 nM

B20: IL6R-BP228 (antibody)
chain 1: B3 chain 1 with S269Q, H270D, P273G, A328D, K332R
chain 2: not shown
Kd (human FcγRIIb [8]): 40 nM

B22: IL6R-BP249 (antibody)
chain 1: B3 chain 1 with E235D, H270D, P273G, Y298D, A328K, K332R
chain 2: not shown
Kd (human FcγRIa [10]): 7 nM

B23: IL6R-BP243 (antibody)
chain 1: B3 chain 1 with E235D, H270D, P273G, A328K, K332R
chain 2: not shown
Kd (human FcγRIa [10]): 3 nM

B26: IL6R-BP350 (antibody)
chain 1: B3 chain 1 with E235D, Y236L, S269E, H270E, P273G, A328K, K332A
chain 2: not shown
Kd (human FcγRIIb [12]): 100 nM

Second part, the binder after the results:

Kd (human FcγRIIa R131 [1]): 3000 nM
B1: IL6R-BP474 (antibody)
chain 1: B3 chain 1 with E235D, Y236L, H270D, P273G, Y298D, A328K, K332S, P333S
chain 2: not shown

Kd (human FcγRIIb [2]): 4 nM
B2: IL6R-BP464 (antibody)
chain 1: B3 chain 1 with E235D, Y236L, S269A, H270E, P273G, A328K, K332R, P398Y
chain 2: not shown

Kd (human FcγRIa [6]): 0.6 nM
B4: IL6R-BP456 (antibody)
chain 1: B3 chain 1 with E235D, Y236L, S269A, H270E, P273G, A328K, K332R, P398M
chain 2: not shown

Kd (human FcγRIIb [2]): 4 nM
B6: IL6R-BP455 (antibody)
chain 1: B3 chain 1 with E235D, Y236L, S269A, H270E, P273G, A328K, K332R, P398L
chain 2: not shown

Kd (human FcγRIIb [9]): 40 nM
B9: IL6R-BP468 (antibody)
chain 1: B3 chain 1 with E235D, Y236L, H270D, P273G, Y298D, A328K, K332R, K336T
chain 2: not shown

Kd (human FcγRIIa R131 [1]): 800 nM
B12: IL6R-BP471 (antibody)
chain 1: B3 chain 1 with E235D, Y236L, H270D, P273G, Y298D, A328K, K332R, P333S
chain 2: not shown

Kd (human FcγRIIa R131 [11]): 30000 nM
B13: IL6R-BP514 (antibody)
chain 1: B3 chain 1 with E235D, Y236L, H270E, P273G, E274F, A328K, K332A
chain 2: not shown

Kd (human FcγRIIb [12]): 100 nM
B17: IL6R-BP367 (antibody)
chain 1: B3 chain 1 with E235D, Y236L, H270E, E271D, P273G, A328K, K332A
chain 2: not shown

Kd (human FcγRIa [6]): 0.9 nM
B18: IL6R-BP447 (antibody)
chain 1: B3 chain 1 with E235D, Y236L, S269A, H270E, P273G, A328K, K332R, P398A
chain 2: not shown

Kd (human FcγRIIa R131 [11]): 2100 nM
B19: IL6R-BP517 (antibody)
chain 1: B3 chain 1 with E235D, Y236L, H270E, P273G, E274I, A328K, K332A
chain 2: not shown

Kd (human FcγRIa [13]): 3 nM
B21: IL6R-BP384 (antibody)
chain 1: B3 chain 1 with E235D, Y236L, H270D, P273G, Y298D, A328K, K332R, K336R
chain 2: not shown

Kd (human FcγRIIa R131 [1]): 1000 nM
B24: IL6R-BP475 (antibody)
chain 1: B3 chain 1 with E235D, Y236L, H270D, P273G, Y298D, A328K, A329G, K332S
chain 2: not shown

Kd (human FcγRIIa R131 [11]): 3000 nM
B25: IL6R-BP520 (antibody)
chain 1: B3 chain 1 with E235D, Y236L, H270E, P273G, E274M, A328K, K332A
chain 2: not shown

Kd (human FcγRIIa R131 [14]): 600 nM
B27: IL6R-BP469 (antibody)
chain 1: B3 chain 1 with E235D, Y236L, H270D, P273G, Y298D, A328K, K332R, E335S
chain 2: not shown

binding result (mouse FcγRI): no binding
binding result (mouse FcγRIV): no binding
B28: VH3/L(WT)-mIgG1 (antibody)
chain 1: QVQLQESGPGLVKPSETLSLTCAVSGHSISHDHAWSWVRQPPGEGLEWIGFISYSGITNYNPSLQGRVTISRDNSKNTLYLQMNSLRAEDTAVYYCARSLARTTAMDYWGEGTLVTVSSAKTTPPSVYPLAPGSAAQTNSMVTLGCLVKGYFPEPVTVTWNSGSLSSGVHTFPAVLQSDLYTLSSSVTVPSSTWPSETVTCNVAHPASSTKVDKKIVPRDCGCKPCICTVPEVSSVFIFPPKPKDVLTITLTPKVTCVVVDISKDDPEVQFSWFVDDVEVHTAQTQPREEQFNSTFRSVSELPIMHQDWLNGKEFKCRVNSAAFPAPIEKTISKTKGRPKAPQVYTIPPPKEQMAKDKVSLTCMITDFFPEDITVEWQWNGQPAENYKNTQPIMDTDGSYFVYSKLNVQKSNWEAGNTFTCSVLHEGLHNHHTEKSLSHSPGK
chain 2: not shown

binding result (mouse FcγRI): no binding
binding result (mouse FcγRIV): no binding
B29: VH3/L(WT)-mIgG1-mF46 (antibody)
chain 1: B28 chain 1 with S235D, A323D
chain 2: not shown

binding result (mouse FcγRI): no binding
binding result (mouse FcγRIV): no binding
B30: VH3/L(WT)-mIgG1-mF44 (antibody)
chain 1: B28 chain 1 with A323D
chain 2: not shown
